{"source": "paper PMC4837482", "about": "“The complex binding mode of the peptide hormone H2 relaxin to its receptor RXFP1” (Nature Communications, 2016)", "experiment_in_all_cases": "cAMP activity assay (pCRE β-galactosidase reporter), transfected HEK293T cells", "format_in_all_cases": "cell-based", "key": {"RXFP1": {"biological_target": "T1, RXFP1 (Homo sapiens, UniProt Q9HBX9)", "T1 construct": "transiently transfected human embryonic kidney (HEK) 293T cells expressing full-length RXFP1 and mutants; expressed in transfected cells; host or cells: HEK293T", "T1 sequence (Q9HBX9 1-757)": "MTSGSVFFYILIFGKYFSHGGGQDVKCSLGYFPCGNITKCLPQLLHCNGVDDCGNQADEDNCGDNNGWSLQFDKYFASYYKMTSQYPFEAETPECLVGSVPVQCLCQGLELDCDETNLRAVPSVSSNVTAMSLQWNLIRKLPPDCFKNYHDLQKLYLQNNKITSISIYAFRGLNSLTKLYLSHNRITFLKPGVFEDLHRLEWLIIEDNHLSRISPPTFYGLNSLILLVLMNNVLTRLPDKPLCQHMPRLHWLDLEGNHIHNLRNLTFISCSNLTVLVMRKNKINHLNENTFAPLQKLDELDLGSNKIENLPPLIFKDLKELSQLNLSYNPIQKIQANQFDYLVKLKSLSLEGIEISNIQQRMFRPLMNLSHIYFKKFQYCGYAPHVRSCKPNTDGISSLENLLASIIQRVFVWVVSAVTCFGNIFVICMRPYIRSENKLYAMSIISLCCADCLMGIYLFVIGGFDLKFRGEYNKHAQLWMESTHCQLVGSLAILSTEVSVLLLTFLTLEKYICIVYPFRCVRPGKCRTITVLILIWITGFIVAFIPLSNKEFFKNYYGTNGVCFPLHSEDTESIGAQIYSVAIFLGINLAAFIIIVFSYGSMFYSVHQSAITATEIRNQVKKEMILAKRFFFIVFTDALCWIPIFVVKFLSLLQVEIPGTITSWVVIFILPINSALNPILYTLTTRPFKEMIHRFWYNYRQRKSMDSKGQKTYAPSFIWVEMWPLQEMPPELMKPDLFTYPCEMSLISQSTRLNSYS", "details": "construct RXFP1 (wild type), ±s.e.m.", "how_it_was_run": "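Relaxin-stimulated cells go through overnight storage at −80 °C, two 10-min lysis steps at pH 8.0 with shaking, and chlorophenol red-β-D-galactopyranoside development. Output at 570 nm is scaled against the 5 μM Forskolin maximum.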"}, "RXFP1 T61A": {"biological_target": "T2, RXFP1 T61A (Homo sapiens, UniProt Q9HBX9, T83A)", "T2 construct": "cells expressing full-length RXFP1 and mutants; expressed in transfected cells; host or cells: HEK293T", "T2 sequence (Q9HBX9 23-757 T83A limits assumed)": "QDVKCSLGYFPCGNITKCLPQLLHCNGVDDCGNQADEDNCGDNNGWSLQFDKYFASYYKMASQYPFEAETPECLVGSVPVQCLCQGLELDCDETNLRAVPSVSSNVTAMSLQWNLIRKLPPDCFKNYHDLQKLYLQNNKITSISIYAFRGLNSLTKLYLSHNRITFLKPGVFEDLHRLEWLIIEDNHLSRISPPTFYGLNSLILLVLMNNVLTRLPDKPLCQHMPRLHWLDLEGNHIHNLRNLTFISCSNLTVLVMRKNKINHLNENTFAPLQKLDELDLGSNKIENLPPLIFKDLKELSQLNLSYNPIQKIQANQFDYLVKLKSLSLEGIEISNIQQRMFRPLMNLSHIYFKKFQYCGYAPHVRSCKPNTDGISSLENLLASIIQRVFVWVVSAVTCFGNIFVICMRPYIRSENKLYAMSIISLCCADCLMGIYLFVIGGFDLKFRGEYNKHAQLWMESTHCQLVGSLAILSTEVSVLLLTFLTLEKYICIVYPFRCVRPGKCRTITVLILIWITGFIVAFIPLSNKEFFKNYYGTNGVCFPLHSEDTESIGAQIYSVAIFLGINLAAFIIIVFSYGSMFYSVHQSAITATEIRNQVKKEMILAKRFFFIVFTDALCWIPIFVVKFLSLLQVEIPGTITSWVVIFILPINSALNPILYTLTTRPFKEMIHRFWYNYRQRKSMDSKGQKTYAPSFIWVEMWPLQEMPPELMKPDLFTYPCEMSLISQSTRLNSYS", "details": "construct T61A, ±s.e.m.", "how_it_was_run": "(§1)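 Absorbance at 570 nm from β-galactosidase cleavage of chlorophenol red-β-D-galactopyranoside, expressed as percentage of the maximal 5 μM Forskolin response (mean ± s.e.m., ≥3 experiments in triplicate). Stimulant was H2 relaxin in minimal media containing 1% DMSO.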"}, "RXFP1 F54A/Y58A": {"biological_target": "T3, RXFP1 F54A/Y58A (Homo sapiens, UniProt Q9HBX9, F76A/Y80A)", "T3 construct": "cells expressing full-length RXFP1 and mutants; expressed in transfected cells; host or cells: HEK293T", "T3 sequence (Q9HBX9 23-757 F76A/Y80A limits assumed)": "T2 sequence (Q9HBX9 23-757 T83A limits assumed) with F54A, Y58A, A61T", "details": "construct F54A/Y58A, ±s.e.m.", "how_it_was_run": "as §1"}, "[1]": {"details": "percentage of maximum response to 5 μM Forskolin"}}, "note": "Where a chain is given by its changes, count along the chain named.", "data": [{"substance": "H2 relaxin: two-chain 6-kDa peptide hormone structurally related to insulin; recombinant human gene-2 H2 relaxin provided by Corthera", "values": [{"measurement": "H2 relaxin pEC50", "setting": "RXFP1; cAMP reporter", "value": "10.97±0.05 (6)"}, {"measurement": "H2 relaxin Emax", "setting": "RXFP1; [1]", "value": "116.3±4.2 (6) %"}, {"measurement": "H2 relaxin pEC50", "setting": "RXFP1 T61A; cAMP reporter", "value": "11.15±0.17 (5)"}, {"measurement": "H2 relaxin Emax", "setting": "RXFP1 T61A; [1]", "value": "142.58±15.97 (4) %"}, {"measurement": "H2 relaxin pEC50", "setting": "RXFP1 F54A/Y58A; cAMP reporter", "value": "9.87±0.08 (5)***^,#,θ"}, {"measurement": "H2 relaxin Emax", "setting": "RXFP1 F54A/Y58A; [1]", "value": "99.94±2.19 (5) %"}]}]}
